According to US20070099830:

Key:
[1] = biological target: histone 2A protein
[2] = biological target: bovine recombinant glutamate dehydrogenase, P00366
Chain of bovine recombinant glutamate dehydrogenase, P00366 (P00366 58-558): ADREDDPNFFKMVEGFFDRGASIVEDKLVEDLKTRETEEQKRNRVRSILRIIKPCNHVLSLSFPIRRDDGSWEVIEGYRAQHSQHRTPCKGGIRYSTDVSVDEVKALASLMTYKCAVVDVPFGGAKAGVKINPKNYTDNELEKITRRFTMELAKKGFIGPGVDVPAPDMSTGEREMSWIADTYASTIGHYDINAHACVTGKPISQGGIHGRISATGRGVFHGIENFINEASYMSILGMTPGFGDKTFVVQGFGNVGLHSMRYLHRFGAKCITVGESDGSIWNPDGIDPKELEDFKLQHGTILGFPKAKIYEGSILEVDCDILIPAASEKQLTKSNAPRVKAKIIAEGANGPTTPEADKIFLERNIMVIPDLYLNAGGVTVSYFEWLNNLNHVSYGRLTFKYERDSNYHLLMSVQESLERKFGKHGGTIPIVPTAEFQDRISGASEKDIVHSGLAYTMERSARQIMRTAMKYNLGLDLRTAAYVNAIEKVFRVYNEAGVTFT

B1: human Sirt4 with a C-terminal FLAG (protein)
chain: IGLFVPASPPLDPEKVKELQRFITLSKRLLVMTGAGISTESGIPDYRSEKVGLYARTDRRPIQHGDFVRSAPIRQRYWARNFVGWPQFSSHQPNPAHWALSTWEKLGKLYWLVTQNVDALHTKAGSRRLTELHGCMDRVLCLDCGEQTPRGVLQERFQVLNPTWSAEAHGLAPDGDVFLSEEQVRSFQVPTCVQCGGHLKPDVVFFGDTVNPDKVDFVHKRVKEADSLLVVGSSLQVYSGYRFILTAWEKKLPIAILNIGPTRSDDLACLKLNSRCGELLPLIDPC
[1]
  mass spectroscopy of histone 2A after incubation with Sirt4 and NAD: Sirt4 transferred an approximately 500 Dalton moiety to Histone 2A
[2]
  glutamate dehydrogenase activity (disappearance of NADH, A340) after one hour with Sirt4 and NAD: Sirt4, but not the buffer control, significantly reduced the enzymatic activity of glutamate dehydrogenase
